Patent publication US20250157661

Test system: Indicator molecule containing the cleavable sequence GPQGIFGQ with a terminal biotin group connected via a polyethylene glycol spacer/linker (intact, Examples 1-6)

Active MMP-9 (Alere San Diego), sequence (chain, as listed by the source): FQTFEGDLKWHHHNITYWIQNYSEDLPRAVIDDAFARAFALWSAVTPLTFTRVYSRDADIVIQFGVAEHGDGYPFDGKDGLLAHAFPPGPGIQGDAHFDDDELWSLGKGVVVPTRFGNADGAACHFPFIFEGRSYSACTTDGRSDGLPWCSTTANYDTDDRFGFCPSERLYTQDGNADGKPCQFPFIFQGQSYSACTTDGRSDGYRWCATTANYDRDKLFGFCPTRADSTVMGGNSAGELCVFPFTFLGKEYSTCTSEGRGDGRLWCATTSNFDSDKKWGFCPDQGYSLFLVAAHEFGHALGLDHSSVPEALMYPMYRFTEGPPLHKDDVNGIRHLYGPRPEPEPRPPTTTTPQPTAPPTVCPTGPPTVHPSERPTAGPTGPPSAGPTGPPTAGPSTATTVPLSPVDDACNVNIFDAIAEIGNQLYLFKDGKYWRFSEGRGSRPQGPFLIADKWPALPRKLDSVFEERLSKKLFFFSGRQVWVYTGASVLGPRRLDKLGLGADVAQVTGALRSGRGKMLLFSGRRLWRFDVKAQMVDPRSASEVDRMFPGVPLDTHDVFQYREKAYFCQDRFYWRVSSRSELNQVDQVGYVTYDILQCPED
MMP3 (Enzo), sequence (chain, as listed by the source): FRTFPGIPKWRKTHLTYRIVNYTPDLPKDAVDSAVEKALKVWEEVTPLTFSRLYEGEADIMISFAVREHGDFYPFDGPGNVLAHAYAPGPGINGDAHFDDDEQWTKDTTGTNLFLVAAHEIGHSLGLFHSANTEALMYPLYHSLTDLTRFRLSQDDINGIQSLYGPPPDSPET
MMP9 (Enzo), sequence (chain, as listed by the source): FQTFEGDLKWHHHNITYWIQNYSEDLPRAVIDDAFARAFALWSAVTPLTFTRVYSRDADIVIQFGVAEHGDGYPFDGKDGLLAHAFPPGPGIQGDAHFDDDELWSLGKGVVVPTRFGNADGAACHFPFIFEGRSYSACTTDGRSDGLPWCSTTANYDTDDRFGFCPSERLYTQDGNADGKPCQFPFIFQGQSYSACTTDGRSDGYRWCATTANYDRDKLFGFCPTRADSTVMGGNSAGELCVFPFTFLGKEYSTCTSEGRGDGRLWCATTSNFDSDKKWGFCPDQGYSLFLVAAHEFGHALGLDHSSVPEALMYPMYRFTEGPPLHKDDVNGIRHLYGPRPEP
MMP2 (Enzo), sequence (chain, as listed by the source): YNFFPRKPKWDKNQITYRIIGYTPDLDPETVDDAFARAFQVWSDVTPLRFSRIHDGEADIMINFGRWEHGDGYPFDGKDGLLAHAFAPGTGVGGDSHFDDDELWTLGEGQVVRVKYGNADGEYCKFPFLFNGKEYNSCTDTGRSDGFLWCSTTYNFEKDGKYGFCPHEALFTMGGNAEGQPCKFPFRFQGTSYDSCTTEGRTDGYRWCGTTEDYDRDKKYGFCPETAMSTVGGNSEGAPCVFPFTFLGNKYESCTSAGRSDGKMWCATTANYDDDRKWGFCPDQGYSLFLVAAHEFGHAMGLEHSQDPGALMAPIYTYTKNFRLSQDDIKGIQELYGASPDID
MMP10 (Enzo), sequence (chain, as listed by the source): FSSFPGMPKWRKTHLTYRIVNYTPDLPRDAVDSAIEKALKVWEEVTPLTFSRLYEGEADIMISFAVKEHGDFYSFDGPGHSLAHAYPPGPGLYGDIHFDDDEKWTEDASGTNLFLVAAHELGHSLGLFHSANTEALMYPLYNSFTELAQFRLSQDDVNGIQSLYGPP
MMP8 (Enzo), sequence (chain, as listed by the source): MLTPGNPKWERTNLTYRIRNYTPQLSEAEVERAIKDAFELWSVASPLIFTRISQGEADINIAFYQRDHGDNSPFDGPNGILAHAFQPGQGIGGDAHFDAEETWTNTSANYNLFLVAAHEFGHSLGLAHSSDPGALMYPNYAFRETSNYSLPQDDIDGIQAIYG

## Active MMP-9 (Alere San Diego)
  OD405 (ELISA, streptavidin plate, CF1522-AP) at 0.39 ng/ml MMP9: 0.14 OD405
  OD405 (ELISA, streptavidin plate, CF1522-AP) at 0.78 ng/ml MMP9: 0.14 OD405
  OD405 (ELISA, streptavidin plate, CF1522-AP) at 1.56 ng/ml MMP9: 0.14 OD405
  OD405 (ELISA, streptavidin plate, CF1522-AP) at 3.13 ng/ml MMP9: 0.13 OD405
  OD405 (ELISA, streptavidin plate, CF1522-AP) at 6.25 ng/ml MMP9: 0.17 OD405
  OD405 (ELISA, streptavidin plate, CF1522-AP) at 12.50 ng/ml MMP9: 0.18 OD405
  OD405 (ELISA, streptavidin plate, CF1522-AP) at 25.00 ng/ml MMP9: 0.27 OD405
  OD405 (ELISA, streptavidin plate, CF1522-AP) at 50.00 ng/ml MMP9: 0.5 OD405
  reader value (lateral flow, CF1522-gold at the polystreptavidin test line) at 0.9765625 ng/ml MMP9: 338 reader units
  reader value (lateral flow, CF1522-gold at the polystreptavidin test line) at 1.953125 ng/ml MMP9: 343 reader units
  reader value (lateral flow, CF1522-gold at the polystreptavidin test line) at 3.90625 ng/ml MMP9: 413 reader units
  reader value (lateral flow, CF1522-gold at the polystreptavidin test line) at 7.8125 ng/ml MMP9: 524 reader units
  reader value (lateral flow, CF1522-gold at the polystreptavidin test line) at 15.625 ng/ml MMP9: 882 reader units
  reader value (lateral flow, CF1522-gold at the polystreptavidin test line) at 31.25 ng/ml MMP9: 2030 reader units
  reader value (lateral flow, CF1522-gold at the polystreptavidin test line) at 62.5 ng/ml MMP9: 3830 reader units
  reader value (lateral flow, CF1522-gold at the polystreptavidin test line) at 125 ng/ml MMP9: 5580 reader units
  reader value (lateral flow, CF1522-gold at the polystreptavidin test line) at 250 ng/ml MMP9: 6220 reader units
  reader value (lateral flow, CF1522-gold at the polystreptavidin test line) at 500 ng/ml MMP9: 6730 reader units
  reader value (lateral flow, CF1522-gold at the polystreptavidin test line) at 1000 ng/ml MMP9: 6770 reader units

## MMP2 (Enzo)
  Reader value (lateral flow, CF1522-gold) with MMP at 0.5 ug/ml: 1610 reader units

## MMP3 (Enzo)
  Reader value (lateral flow, CF1522-gold) with MMP at 0.5 ug/ml: 336 reader units

## MMP8 (Enzo)
  Reader value (lateral flow, CF1522-gold) with MMP at 0.5 ug/ml: 1140 reader units

## MMP9 (Enzo)
  Reader value (lateral flow, CF1522-gold) with MMP at 0.5 ug/ml: 3840 reader units

## MMP10 (Enzo)
  Reader value (lateral flow, CF1522-gold) with MMP at 0.5 ug/ml: 444 reader units
